Results as given in PMC6837886.

Tests used:
[1] = target: T1, UP1 (RRM1-RRM2 fragment of hnRNP A1) (UniProt P09651 1-196); assay: ITC
[2] = target: T1, UP1 (RRM1-RRM2 fragment of hnRNP A1); assay: NMR
[3] = target: T1, UP1 (RRM1-RRM2 fragment of hnRNP A1); assay: NMR; remark: listed apart in the source
[4] = target: T1, UP1 (RRM1-RRM2 fragment of hnRNP A1); assay: ITC; remark: listed apart in the source
[5] = target: T1, UP1 (RRM1-RRM2 fragment of hnRNP A1); assay: NMR; remark: listed apart in the source

T1 sequence (P09651 1-196): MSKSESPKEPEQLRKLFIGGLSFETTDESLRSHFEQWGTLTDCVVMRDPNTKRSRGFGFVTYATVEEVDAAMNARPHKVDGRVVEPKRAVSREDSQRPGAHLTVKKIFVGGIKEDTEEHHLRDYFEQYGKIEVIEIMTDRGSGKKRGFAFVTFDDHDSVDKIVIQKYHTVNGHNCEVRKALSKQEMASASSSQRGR

Binder | Kd [1] | Kd [2] | Kd [3] | Kd [4] | Kd [5]
GCACCACACGGGUUUUAGACAAAAUCCG (structured_RNA) [SMN2 exon 7 ESE1 hairpin] | 47.4 ± 19.7 µM | 100 ± 20 µM | – | – | –
GCACCACACGGGUUUCAGACAAAAUCCG (structured_RNA) [SMN1 exon 7 ESE1 hairpin] | 51.3 ± 2.5 µM | – | 101 ± 29 µM | – | –
GCACCACACG (ssRNA) [RNA0] | – | – | 978 ± 162 µM | – | –
GCACCACAGGAUCAAUAGCAGGUGUGGCACACCAGUCAUACCUUGAUCC (structured_RNA) [EV2] | – | – | – | 5.1 ± 1.9 µM | 11.1 ± 5.1 µM
